Measured values taken from the nanobody polyreactivity screen of Harvey et al. (2022).

Test: yeast display, Sf9 membrane polyspecificity reagent, FACS + sequencing; frameworks hold sequencing errors
In short: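 Galactose-induced (36–48 hours) yeast carrying a synthetic nanobody display library were exposed to 10% biotinylated, detergent-solubilized Sf9 membrane reagent at 4 °C for 1 hour. FACS followed streptavidin microbead enrichment, using low and high (top ~1%) gates for expression (anti-HA) and reagent binding (streptavidin). Colony PCR, MiSeq 2 × 250 sequencing and CDR-length filtering followed. Labels for polyreactivity reflect the gate of origin.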

| Sequence | polyreactivity (PSR sort gate) |
| --- | --- |
| QVQLVESGGGLVQAGGSLRLSCAASGSTFRFNAMGWYRQAPGKEREFVAAIRFTGGSTYYADSVKGRFTISRDNAKNTVYLQMNSLKPEDTAVYYCNNADEYSTVEYDYWGQGSQVTVSS | low polyreactivity |
| QVQLVESGGGLVQAGGSLRLSCAASGSTFRFYAMGWYRQAPGKERELVATISSSGGTTYYADSVKGRFTISRDNAKNTVYLQMNSLKPEDTAVYYCAARYYDTRWRYYYWGQGTQVTVSS | high polyreactivity |
| QVQLVESGGGLVQAGGSLRLSCAASGSTFRGNAMGWYRQAPGKERELVAAITRRGGSTYYADSVKGRFTISRDNAKNTVYLQMNRLKPEDTAVYYCAADWGNDWWGLFWGDYWGQGTQVTVSS | high polyreactivity |
| QVQLVESGGGLVQAGGSLRLSCAASGSTFRGNAMGWYRQAPGKERELVASITGGGSTNYADSVKGRFTISRDNAKNTVYLQMNSLKPEDTAVYYCAADWGADFYWGQGTQVTVSS | low polyreactivity |
| QVQLVESGGGLVQAGGSLRLSCAASGSTFRGNAMGWYRQAPWKEREFVASISRRGGRTNYADSVKGRFTISRDNAKNTVYLQMNSLKPEDTAVYYCAAGRYRYKYRYFTAWYGYWGQGTQVTVSS | high polyreactivity |
| QVQLVESGGGLVQAGGSLRLSCAASGSTFRGYAMGWYRQAPGKEREFVAAISRRGGTTYYADSVKGRFTISRDNAKNTVYLQMNSLKPEDTAVYYCNKVYYQHYLAFDYWGQGTQVNVSS | high polyreactivity |
| QVQLVESGGGLVQAGGSLRLSCAASGSTFRGYAMGWYRQAPGKERELVAAISRSGGSTYYADSVKGRFTISRDNAKNTVYLQMNSLKPEDTAVYYCNARSSKRSSRGYDYWGQGTQVTVSS | high polyreactivity |
| QVQLVESGGGLVQAGGSLRLSCAASGSTFRGYAMGWYRQAPGKERELVAAITSDGSTNYADSVKGRFTISRDNAKNTVYLQMNSLKPEDTAVYYCNVKATRKWWDRRVYRYNYWGQGTQVTVSS | high polyreactivity |
| QVQLVESGGGLVQAGGSLRLSCAASGSTFRGYAMGWYRQAPGKERELVAASTWSGVTTYYADSVKGRFTISRDNAKNNVYLQMHSLKPEDTAVYYCATGTLYSDGAIYGYWGQGTQVTVSS | low polyreactivity |
| QVQLVESGGGLVQAGGSLRLSCAASGSTFRGYAMGWYRQAPGKERELVAGITKRGGSTYYADSVKGRFTISRDNAKNTVYLQMNSLKPEDTAVYYCAAGKHRQAYEHDYWGQGTQVTVSS | high polyreactivity |
| QVQLVESGGGLVQAGGSLRLSCAASGSTFRHYAMGLYRQAPGKERELVAAISSTGGSTYYADSVKGRFTISRDNAKNTVYLQMNSLKPEDTAVYYCAASPYGFRRNYYWGQGTQVTVSS | high polyreactivity |
| QVQLVESGGGLVQAGGSLRLSCAASGSTFRHYAMGWYRQAPGKERELVAAITRRTVSTYYADSVKGRFTISRDNAKNSVYLQMNSLKPEHTAVYYCAADYWYSGYDYWGQGTQVTVSS | low polyreactivity |
| QVQLVESGGGLVQAGGSLRLSCAASGSTFRINAMGWYRQAPGKERELVAAISRSGSITYYADSVKGRFTISRDNAKNTVYLQMNSLKPEDTAVYYCAAKSRKGGDYWGQGTQVTVSS | high polyreactivity |
| QVQLVESGGGLVQAGGSLRLSCAASGSTFRIYAMGWYRQAPGKERELVARISWNGGRTYYADSVKGRFTISRDNAKNTVYLQMNSLKTEDTAVYYCNALVPPGYDYWGQGTQVTVSS | high polyreactivity |
| QVQLVESGGGLVQAGGSLRLSCAASGSTFRIYAMGWYRQAPGKERELVASISSGGRTYYADSVKGRFTISRDNAKNTVYLQMNSLKPEDTAVYYCNARHYYIWWRSPTRTAMNYWGQGTQVTVSS | high polyreactivity |
| QVQLVESGGGLVQAGGSLRLSCAASGSTFRLYAMGGSRQAPGKERELVAAIRSGGNTNNADSVKGRFTISRDNAKHTVYLQMNSLKPEDTAVYYCNGFSGQLPVPNYDYWGQGTQVTVSS | high polyreactivity |
| QVQLVESGGGLVQAGGSLRLSCAASGSTFRLYAMGWYRQAPGEERELVASITFSDSITSYADSVKGRFTISRDNAKNTVYLQMNSLKPEDTAVYYCDKDTSYENVVYTFDYDYWGQGTQVTVSS | low polyreactivity |
| QVQLVESGGGLVQAGGSLRLSCAASGSTFRLYAMGWYRQAPGKEREFVAAISFRGGSTYYADSVKGRFTISRDNAKNTVYLQMNSLKPEDTAVYYCAADYWTSADPRNIIKYDYWGQGTQVTVSS | high polyreactivity |
| QVQLVESGGGLVQAGGSLRLSCAASGSTFRLYAMGWYRQAPGKERELVAAISYSGGSTYYADSVKGRFTISRDNAKNTVYLQMNSLKPEDTAVYYCNAVRRHGGYYDYGYWGQGTQVTVSS | high polyreactivity |
| QVQLVESGGGLVQAGGSLRLSCAASGSTFRLYAMGWYRQAPGKERELVAVISRSGGRTYADSVKGRFTISRDNAKNSVYFQMNSLKPEDTAVYYCAKARHKSATYTHDSWGQGTQVTVSS | high polyreactivity |
| QVQLVESGGGLVQAGGSLRLSCAASGSTFRLYTMGWYRQAPGKERELVASIRGSGGRTYYADSVKGRFTISRDNAKNTVYLQMNSLKPEDTAVYYCNAESYSTWSFGHRYEYDYWGQGTQVTVSS | low polyreactivity |

| Sequence | polyreactivity (PSR sort gate) |
| --- | --- |
| QVQLVESGGGLVQAGGSLRLSCAASGSTFRPNAMGWYRQAPGKERELVATIRTSGGTTYYADSVKGRFTISRDNAKNTVYLQMNSLKPEDTAVYYCAATKFGSSYDYWGQGTQVTVSS | low polyreactivity |
| QVQLVESGGGLVQAGGSLRLSCAASGSTFRPYAMGWYRQAPGKERELVAAITSGGNTYYADSVKGRFTISRDNAKNTVYLQMNSLKPEDTAVYYCAARPYYYIVRGTEYDYWGQGTQVTVSS | high polyreactivity |
| QVQLVESGGGLVQAGGSLRLSCAASGSTFRPYAMGWYRQAPGKERELVARITGSGDSTYYADSVKGRFTISRDNAKNTVYLQMNSLKPEDTAVYYCAREFDYSLSGFDYWGQGTQVTVSS | low polyreactivity |
| QVQLVESGGGLVQAGGSLRLSCAASGSTFRRNAMGWYRQAPGKERELVAAITSGGSTYYADSVKGRFTISRDNAKNTVYLQMNSLKPEDTAVYYCNRLYRWKKPLDYDYWGQGTQVTVSS | high polyreactivity |
| QVQLVESGGGLVQAGGSLRLSCAASGSTFRRNAMGWYRQAPGKERELVAAITWRGTSTYYADSVKGRFTISRDNAKNTVYLQMNSLKPEDTAVYYCAADRFVRYWGQGTQVTVSS | high polyreactivity |
| QVQLVESGGGLVQAGGSLRLSCAASGSTFRRYAMGWYRPAPGKERELVAAISTRGGSTYYADSVKGRFTISRDNAKNTVYLQMNSLKPEDTAVYYCAADEPKYTSSSSRRYGYWGQGTQVTVSS | high polyreactivity |
| QVQLVESGGGLVQAGGSLRLSCAASGSTFRRYAMGWYRQAPGKERELGAAISRSGGTTYYADSVKGRFTISRDNAKNTVYLQMNSLKPEDTAVYYCNARYPVVRYDYWGQGTQVTVSS | high polyreactivity |
| QVQLVESGGGLVQAGGSLRLSCAASGSTFRRYAMGWYRQAPGKERELVATITKRGGSTYYADSVKGRFTISRDNAKNTVYLQMNSLKPEDTAVYYCAADSAYWTYEYWGQGTQVTVSS | high polyreactivity |
| QVQLVESGGGLVQAGGSLRLSCAASGSTFRRYAMGWYRQAPWKERELVAAITRRGITYYADSVKGRFTISRDNAKNTVYFQMNSLKPEDTAVYYCAATTFGPYALYPRYYYWGQGTQVTVSS | high polyreactivity |
| QVQLVESGGGLVQAGGSLRLSCAASGSTFRRYGMGWYRQAPGKEREWVAAISKGGTRTYYADSVKGRFTISRDNAKNTVYLQMNSLKPEDTAVYYCAAAGAPSSTPQKEYYWGQGTQVTVSS | high polyreactivity |
| QVQLVESGGGLVQAGGSLRLSCAASGSTFRSNAMGWYRPAPGKERELVAAISSRVGTTYYADSVKGRFTISRDNAKNTVYLQMNSLKPEDTAVYYCAAQGWRYYRTVVPMDYWGQGTQVTVSS | low polyreactivity |
| QVQLVESGGGLVQAGGSLRLSCAASGSTFRTNTMGWYRQAPGKERELVAAITGTGGSTYYADSVKGRFTISRDNAKNTVYLQMNSLKPEDTAVYYCAKRYYRWRRDYSWGQGTQVTVSS | high polyreactivity |
| QVQLVESGGGLVQAGGSLRLSCAASGSTFRTYAMGWYRQAPGKERELVAAISWSGGITYDADSVKGRFTISRDNAKNTVYLQMNSLKPEDTAVYFCDARLASWPLTYDFQWYEYWGQGTQVTVSS | low polyreactivity |
| QVQLVESGGGLVQAGGSLRLSCAASGSTFRVNAMGWYRQAPGKEREFVAGISFGGGSTYYADSVKGRFTISRDNAKNTVYLQMNSLKPEDTAVYYCNARGKGSGAVRYNYWGQGTQVTVSS | high polyreactivity |
| QVQLVESGGGLVQAGGSLRLSCAASGSTFRVNVMGLYRQAPGKERELVAAIDSGGSTYYADSVKGRFTISRDNAKNTVYLQMNSLKPEYTAVYYCNSRVDSPSPYDYWGQGTQVTVSS | low polyreactivity |
| QVQLVESGGGLVQAGGSLRLSCAASGSTFRVYAMGCYRQAPGKERELVAAISGSGGSTYYADSVKGRFTISRDNAKNTVYLQMNSLKPEDTAVYYCAARSWYTEYYWGQGTQVTVSS | high polyreactivity |
| QVQLVESGGGLVQAGGSLRLSCAASGSTFRVYAMGWYRQAPGKERELVAAITRSGGRTHYADSVKGRFTISRDNAKNTVYLQMNSLKPEDTAVYYCAARFYYTKPEDYYWGQGTQVTVSS | high polyreactivity |
| QVQLVESGGGLVQAGGSLRLSCAASGSTFRWNAMGWYRQAPGKERELVAAISNGGSTNYADSVKGRFTISRDNAKNTVYLQMNSLKPEDTAVYYCATDGWYGQHYYDYDFDYYYWGQGTQVTVSS | low polyreactivity |
| QVQLVESGGGLVQAGGSLRLSCAASGSTFRWNAMGWYRQAPGKERELVATITWGGGSTYYADSVKGRFTISRDNAKNTVYLQMNSLKPEDTAVYYCARRQRARYSYYQYNYWGQGTQVTVSS | high polyreactivity |
| QVQLVESGGGLVQAGGSLRLSCAASGSTFRWYAMGWYRQAPGKERELVASITWSGGGTYYADSVKGRFTISRDNAKNTVYFQMNSLKPEDTAVYYCNRRTWRYETRGDDYWGQGTQVTVSS | high polyreactivity |
